B1: Discoidin domain-containing receptor 2 (Homo sapiens), Q16832 (parent)
chain: MILIPRMLLVLFLLLPILSSAKAQVNPAICRYPLGMSGGQIPDEDITASSQWSESTAAKYGRLDSEEGDGAWCPEIPVEPDDLKEFLQIDLHTLHFITLVGTQGRHAGGHGIEFAPMYKINYSRDGTRWISWRNRHGKQVLDGNSNPYDIFLKDLEPPIVARFVRFIPVTDHSMNVCMRVELYGCVWLDGLVSYNAPAGQQFVLPGGSIIYLNDSVYDGAVGYSMTEGLGQLTDGVSGLDDFTQTHEYHVWPGYDYVGWRNESATNGYIEIMFEFDRIRNFTTMKVHCNNMFAKGVKIFKEVQCYFRSEASEWEPNAISFPLVLDDVNPSARFVTVPLHHRMASAIKCQYHFADTWMMFSEITFQSDAAMYNNSEALPTSPMAPTTYDPMLKVDDSNTRILIGCLVAIIFILLAIIVIILWRQFWQKMLEKASRRMLDDEMTVSLSLPSDSSMFNNNRSSSPSEQGSNSTYDRIFPLRPDYQEPSRLIRKLPEFAPGEEESGCSGVVKPVQPSGPEGVPHYAEADIVNLQGVTGGNTYSVPAVTMDLLSGKDVAVEEFPRKLLTFKEKLGEGQFGEVHLCEVEGMEKFKDKDFALDVSANQPVLVAVKMLRADANKNARNDFLKEIKIMSRLKDPNIIHLLAVCITDDPLCMITEYMENGDLNQFLSRHEPPNSSSSDVRTVSYTNLKFMATQIASGMKYLSSLNFVHRDLATRNCLVGKNYTIKIADFGMSRNLYSGDYYRIQGRAVLPIRWMSWESILLGKFTTASDVWAFGVTLWETFTFCQEQPYSQLSDEQVIENTGEFFRDQGRQTYLPQPAICPDSVYKLMLSCWRRDTKNRPSFQEIHLLLLQQGDE

Variants of: B1
Details: with coba2_human COL11A2, P13942
coba2_human COL11A2, P13942, sequence (P13942 whole entry): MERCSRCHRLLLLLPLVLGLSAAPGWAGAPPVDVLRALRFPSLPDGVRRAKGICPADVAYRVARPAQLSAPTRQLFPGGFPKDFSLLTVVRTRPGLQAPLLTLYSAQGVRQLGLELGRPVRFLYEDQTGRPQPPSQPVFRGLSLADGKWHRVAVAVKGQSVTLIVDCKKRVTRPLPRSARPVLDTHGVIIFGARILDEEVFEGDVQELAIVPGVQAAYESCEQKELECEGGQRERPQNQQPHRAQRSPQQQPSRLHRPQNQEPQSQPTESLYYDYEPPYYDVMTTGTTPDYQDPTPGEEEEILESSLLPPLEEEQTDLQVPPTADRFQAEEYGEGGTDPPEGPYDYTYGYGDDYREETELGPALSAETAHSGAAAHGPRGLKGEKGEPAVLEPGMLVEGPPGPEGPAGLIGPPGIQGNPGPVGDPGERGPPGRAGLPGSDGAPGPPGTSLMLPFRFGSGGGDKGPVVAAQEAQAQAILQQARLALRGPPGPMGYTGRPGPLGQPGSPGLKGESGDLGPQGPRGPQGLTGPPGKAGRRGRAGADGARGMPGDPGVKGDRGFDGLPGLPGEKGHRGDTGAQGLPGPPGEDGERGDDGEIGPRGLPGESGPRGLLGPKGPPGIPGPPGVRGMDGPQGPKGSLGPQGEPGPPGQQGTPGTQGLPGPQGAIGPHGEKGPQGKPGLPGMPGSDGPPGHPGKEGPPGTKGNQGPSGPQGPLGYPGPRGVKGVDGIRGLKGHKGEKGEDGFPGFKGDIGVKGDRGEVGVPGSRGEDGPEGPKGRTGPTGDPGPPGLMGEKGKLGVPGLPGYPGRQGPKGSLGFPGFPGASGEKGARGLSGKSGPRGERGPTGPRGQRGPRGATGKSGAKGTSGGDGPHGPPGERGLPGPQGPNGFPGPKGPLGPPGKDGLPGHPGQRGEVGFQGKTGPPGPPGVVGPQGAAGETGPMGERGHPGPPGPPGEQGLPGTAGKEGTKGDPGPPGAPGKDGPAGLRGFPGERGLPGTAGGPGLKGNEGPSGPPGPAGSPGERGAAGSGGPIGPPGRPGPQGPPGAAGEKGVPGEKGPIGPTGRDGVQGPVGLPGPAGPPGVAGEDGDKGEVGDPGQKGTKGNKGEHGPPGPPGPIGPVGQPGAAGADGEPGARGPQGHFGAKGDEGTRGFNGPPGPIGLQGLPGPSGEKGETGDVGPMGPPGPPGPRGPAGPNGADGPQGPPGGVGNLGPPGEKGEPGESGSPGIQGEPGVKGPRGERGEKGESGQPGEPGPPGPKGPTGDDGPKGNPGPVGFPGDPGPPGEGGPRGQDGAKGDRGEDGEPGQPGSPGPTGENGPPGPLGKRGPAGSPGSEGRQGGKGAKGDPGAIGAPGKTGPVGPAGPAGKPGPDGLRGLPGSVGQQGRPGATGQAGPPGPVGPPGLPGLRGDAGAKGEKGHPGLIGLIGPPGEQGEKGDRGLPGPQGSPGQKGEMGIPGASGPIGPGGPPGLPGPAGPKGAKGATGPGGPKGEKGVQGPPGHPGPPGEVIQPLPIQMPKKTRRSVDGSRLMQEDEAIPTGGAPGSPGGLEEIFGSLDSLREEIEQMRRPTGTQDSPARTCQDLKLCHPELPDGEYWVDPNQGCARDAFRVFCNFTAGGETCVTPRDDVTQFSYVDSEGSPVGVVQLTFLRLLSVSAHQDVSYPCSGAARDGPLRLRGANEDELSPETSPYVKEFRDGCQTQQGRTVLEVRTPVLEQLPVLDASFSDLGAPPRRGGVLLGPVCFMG

Variant	effect of a mutation on the interaction
E113A	disrupting interaction
W52A	disrupting interaction
R105A	disrupting interaction
